# ± gives the uncertainty stated by the source.
# B1: Tripartite motif-containing protein 6, residues 93 to 134; numbered along this chain, Q9C030 (parent)
# chain: KAVLCADHGEKLQLFCQEDGKVICWLCERSQEHRGHHTFLVE
# Variants of: B1
# Assay: abundance fitness (aPCA) (normalised: wild type 0, dead -1); higher = more abundant; growth selection in yeast, the domain comes from the species named
# Details: Homo sapiens
row,Variant,abundance fitness
1,KAVLCAEHGEKLQLFCQEDGKVICWLCERSQEHRGHHTFLVE [D7E],0.048 ± 0.053
2,KAVLCAFHGEKLQLFCQEDGKVICWLCERSQEHRGHHTFLVE [D7F],-0.38 ± 0.29
3,KAVLCAPHGEKLQLFCQEDGKVICWLCERSQEHRGHHTFLVE [D7P],-0.297 ± 0.088
4,KAVLCASHGEKLQLFCQEDGKVICWLCERSQEHRGHHTFLVE [D7S],0.006 ± 0.056
5,KAVLCACHGEKLQLFCQEDGKVICWLCERSQEHRGHHTFLVE [D7C],0.055 ± 0.085
6,KAVLCARHGEKLQLFCQEDGKVICWLCERSQEHRGHHTFLVE [D7R],-0.06 ± 0.051
7,KAVLCAMHGEKLQLFCQEDGKVICWLCERSQEHRGHHTFLVE [D7M],0.091 ± 0.068
8,KAVLCAWHGEKLQLFCQEDGKVICWLCERSQEHRGHHTFLVE [D7W],-0.173 ± 0.05
9,KAVLCAQHGEKLQLFCQEDGKVICWLCERSQEHRGHHTFLVE [D7Q],0.172 ± 0.071
10,KAVLCATHGEKLQLFCQEDGKVICWLCERSQEHRGHHTFLVE [D7T],0.165 ± 0.07
11,KAVLCAAHGEKLQLFCQEDGKVICWLCERSQEHRGHHTFLVE [D7A],0.095 ± 0.046
12,KAVLCANHGEKLQLFCQEDGKVICWLCERSQEHRGHHTFLVE [D7N],-0.085 ± 0.17
13,KAVLCADHGEDLQLFCQEDGKVICWLCERSQEHRGHHTFLVE [K11D],0.142 ± 0.074
14,KAVLCADHGEGLQLFCQEDGKVICWLCERSQEHRGHHTFLVE [K11G],-0.012 ± 0.16
15,KAVLCADHGEALQLFCQEDGKVICWLCERSQEHRGHHTFLVE [K11A],0.029 ± 0.1
16,KAVLCADHGEFLQLFCQEDGKVICWLCERSQEHRGHHTFLVE [K11F],-0.113 ± 0.12
17,KAVLCADHGELLQLFCQEDGKVICWLCERSQEHRGHHTFLVE [K11L],-0.2 ± 0.18
18,KAVLCADHGEILQLFCQEDGKVICWLCERSQEHRGHHTFLVE [K11I],-0.073 ± 0.089
19,KAVLCADHGEELQLFCQEDGKVICWLCERSQEHRGHHTFLVE [K11E],0.103 ± 0.092
20,KAVLCADHHEKLQLFCQEDGKVICWLCERSQEHRGHHTFLVE [G9H],-0.287 ± 0.21

row,Variant,abundance fitness
1,KAVLCADHAEKLQLFCQEDGKVICWLCERSQEHRGHHTFLVE [G9A],-0.061 ± 0.037
2,KAVLCADHVEKLQLFCQEDGKVICWLCERSQEHRGHHTFLVE [G9V],-0.575 ± 0.054
3,KAVLCADHREKLQLFCQEDGKVICWLCERSQEHRGHHTFLVE [G9R],-0.066 ± 0.039
4,KAVLCADHWEKLQLFCQEDGKVICWLCERSQEHRGHHTFLVE [G9W],-0.301 ± 0.049
5,KAVLCADHMEKLQLFCQEDGKVICWLCERSQEHRGHHTFLVE [G9M],-0.162 ± 0.052
6,KAVLCADHDEKLQLFCQEDGKVICWLCERSQEHRGHHTFLVE [G9D],-0.087 ± 0.14
7,KAVLCADHSEKLQLFCQEDGKVICWLCERSQEHRGHHTFLVE [G9S],-0.042 ± 0.061
8,KAVLCADHNEKLQLFCQEDGKVICWLCERSQEHRGHHTFLVE [G9N],0.332 ± 0.38
9,KAVLCADHQEKLQLFCQEDGKVICWLCERSQEHRGHHTFLVE [G9Q],-0.032 ± 0.048
10,KAVLCADHLEKLQLFCQEDGKVICWLCERSQEHRGHHTFLVE [G9L],-0.238 ± 0.038
11,KAVLCADHTEKLQLFCQEDGKVICWLCERSQEHRGHHTFLVE [G9T],-0.407 ± 0.083
12,KAVLCADHEEKLQLFCQEDGKVICWLCERSQEHRGHHTFLVE [G9E],-0.179 ± 0.044
13,KAVLCADHCEKLQLFCQEDGKVICWLCERSQEHRGHHTFLVE [G9C],-0.237 ± 0.27
14,KAVLCADHGQKLQLFCQEDGKVICWLCERSQEHRGHHTFLVE [E10Q],-0.1 ± 0.059
15,KAVLCADHGAKLQLFCQEDGKVICWLCERSQEHRGHHTFLVE [E10A],-0.185 ± 0.15
16,KAVLCADHGDKLQLFCQEDGKVICWLCERSQEHRGHHTFLVE [E10D],-0.075 ± 0.16
17,KAVLCADHGHKLQLFCQEDGKVICWLCERSQEHRGHHTFLVE [E10H],-0.442 ± 0.31
18,KAVLCADHGFKLQLFCQEDGKVICWLCERSQEHRGHHTFLVE [E10F],-0.01 ± 0.077
19,KAVLCADHGYKLQLFCQEDGKVICWLCERSQEHRGHHTFLVE [E10Y],-0.031 ± 0.068
20,KAVLCADHGSKLQLFCQEDGKVICWLCERSQEHRGHHTFLVE [E10S],-0.319 ± 0.069

row,Variant,abundance fitness
1,KAVLCADHGWKLQLFCQEDGKVICWLCERSQEHRGHHTFLVE [E10W],-0.406 ± 0.048
2,KAVLCADHGCKLQLFCQEDGKVICWLCERSQEHRGHHTFLVE [E10C],-0.163 ± 0.1
3,KAVLCADHGRKLQLFCQEDGKVICWLCERSQEHRGHHTFLVE [E10R],-0.019 ± 0.058
4,KAVLCADHGGKLQLFCQEDGKVICWLCERSQEHRGHHTFLVE [E10G],-0.165 ± 0.041
5,KAVLCADCGEKLQLFCQEDGKVICWLCERSQEHRGHHTFLVE [H8C],-0.584 ± 0.13
6,KAVLCADSGEKLQLFCQEDGKVICWLCERSQEHRGHHTFLVE [H8S],-0.901 ± 0.12
7,KAVLCADKGEKLQLFCQEDGKVICWLCERSQEHRGHHTFLVE [H8K],-0.419 ± 0.091
8,KAVLCADQGEKLQLFCQEDGKVICWLCERSQEHRGHHTFLVE [H8Q],-0.275 ± 0.08
9,KAVLCADAGEKLQLFCQEDGKVICWLCERSQEHRGHHTFLVE [H8A],-0.706 ± 0.058
10,KAVLCADPGEKLQLFCQEDGKVICWLCERSQEHRGHHTFLVE [H8P],-0.819 ± 0.094
11,KAVLCADIGEKLQLFCQEDGKVICWLCERSQEHRGHHTFLVE [H8I],-0.74 ± 0.18
12,KAVLCADVGEKLQLFCQEDGKVICWLCERSQEHRGHHTFLVE [H8V],-0.852 ± 0.082
13,KAVLCADWGEKLQLFCQEDGKVICWLCERSQEHRGHHTFLVE [H8W],-1 ± 0.093
14,KAVLCADLGEKLQLFCQEDGKVICWLCERSQEHRGHHTFLVE [H8L],-1.08 ± 0.15
15,KAVLCADRGEKLQLFCQEDGKVICWLCERSQEHRGHHTFLVE [H8R],-0.77 ± 0.062
16,KAVLCADEGEKLQLFCQEDGKVICWLCERSQEHRGHHTFLVE [H8E],-0.518 ± 0.072
17,KAVLCADNGEKLQLFCQEDGKVICWLCERSQEHRGHHTFLVE [H8N],-0.807 ± 0.26
18,KAVLCADTGEKLQLFCQEDGKVICWLCERSQEHRGHHTFLVE [H8T],-0.69 ± 0.087
19,KAVLCADGGEKLQLFCQEDGKVICWLCERSQEHRGHHTFLVE [H8G],-0.691 ± 0.049
20,KAVLCADFGEKLQLFCQEDGKVICWLCERSQEHRGHHTFLVE [H8F],-1.09 ± 0.35

# Source: the Human Domainome abundance scans (Beltran et al. 2025)
